Data from article PMC7904846, “Nanobody-based chimeric antigen receptor T cells designed by CRISPR/Cas9 technology for solid tumor immunotherapy” (Signal Transduction and Targeted Therapy, 2021).

Target: T1, CD105 (Homo sapiens, UniProt P17813)
T1 construct: CD105 (endoglin), human; also called endoglin; CD105 protein
Assay: SPR; CD105 Nbs (10 ug/mL) immobilised on PlexArray Nanocapture Sensor Chips; different concentrations injected at 3.0 uL/s; PlexArray HT system; regeneration with 0.05 mol/L NaOH; 25 °C; triplicate
Conditions: both partners purified

T1 sequence (P17813 26-658): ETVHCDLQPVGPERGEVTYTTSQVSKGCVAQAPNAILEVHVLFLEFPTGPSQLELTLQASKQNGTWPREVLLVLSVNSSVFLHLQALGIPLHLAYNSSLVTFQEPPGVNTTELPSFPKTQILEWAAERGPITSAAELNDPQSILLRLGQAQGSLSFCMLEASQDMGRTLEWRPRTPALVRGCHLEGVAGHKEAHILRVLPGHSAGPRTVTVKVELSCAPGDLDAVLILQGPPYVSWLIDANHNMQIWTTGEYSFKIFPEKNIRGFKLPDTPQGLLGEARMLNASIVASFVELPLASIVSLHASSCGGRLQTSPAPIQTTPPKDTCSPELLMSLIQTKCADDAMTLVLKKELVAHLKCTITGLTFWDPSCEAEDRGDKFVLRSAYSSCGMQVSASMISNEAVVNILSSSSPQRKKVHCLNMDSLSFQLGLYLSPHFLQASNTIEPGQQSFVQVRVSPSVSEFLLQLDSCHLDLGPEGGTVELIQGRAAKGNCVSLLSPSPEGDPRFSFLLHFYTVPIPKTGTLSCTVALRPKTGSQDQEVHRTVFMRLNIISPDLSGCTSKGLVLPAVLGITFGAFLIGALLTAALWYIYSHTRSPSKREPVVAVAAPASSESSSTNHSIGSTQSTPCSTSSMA

B1: Nb C184 (VHH)
VHH: QVQLQESGGGSVQAGGSLRLSCVASGYTVSRGYMGWFRQAPGKEREAVAAIRTGSGSTYYADSVKGRFTISQDNAKNTVYLQMNSLKHEDTGMYYCAASLWYGGNWQSWGSYNYWGQGTQVTVSS
notes: camel VHH selected by phage display against CD105; Cloned in phagemid pMECS, which gives C-terminal hemagglutinin-His6-tagged Nbs; In the CAR the same VHH is joined to the CD8a hinge and transmembrane domain, 4-1BB and CD3zeta; also called anti-CD105 Nanobody (C184); CD105 Nb
  binding result: binds
